Results: FireProtDB (doi:10.1016/s0006-3495(99)76955-9)

Settings: Pseudomonas aeruginosa (strain ATCC 15692 / DSM 22644 / CIP 104116 / JCM 14847 / LMG 12228 / 1C / PRS 101 / PAO1); pH 7.03; 20 °C; Thermal; DSC; phosphate buffer 10 mM; sodium chloride 40 microM; reversible: no; whole UniProt chain shown

B1: Azurin wild type, P00282 (protein)
chain: MLRKLAAVSLLSLLSAPLLAAECSVDIQGNDQMQFNTNAITVDKSCKQFTVNLSHPGNLPKNVMGHNWVLSTAADMQGVVTDGMASGLDKDYLKPDDSRVIAHTKLIGSGEKDSVTFDVSKLKEGEQYMFFCTFPGHSALMKGTLTLK
unfolding enthalpy (calorimetric): 14.6 kcal/mol
unfolding free energy: 14.3 kcal/mol
